Numbering of substitutions follows the chain as printed.
B1: 2LIG189_D33E (VHH)
VHH: QVQLQESGGGLVQAGGSLRLSCAASGKIFSGNEMGWYRQAPGKQRELVGIITSGGITDYADAVKGRFTISRDNAKNMMYLQMNSLKPEDTAVYYCNMRDRTIWWGQGTQVTVSS
B2: 2LIG189_D33F (VHH)
VHH: B1 VHH with E33F
B3: 2LIG189_D33I (VHH)
VHH: B1 VHH with E33I
B4: 2LIG189_D33L (VHH)
VHH: B1 VHH with E33L
B5: 2LIG189_D33Q (VHH)
VHH: B1 VHH with E33Q
B6: 2LIG189_D33R (VHH)
VHH: B1 VHH with E33R
B7: 2LIG189_D33V (VHH)
VHH: B1 VHH with E33V
B8: 2LIG189_D33Y (VHH)
VHH: B1 VHH with E33Y
B9: 2LIG189_M97E (VHH)
VHH: B1 VHH with E33D, M97E
B10: 2LIG189_M97F (VHH)
VHH: B1 VHH with E33D, M97F
B11: 2LIG189_M97H (VHH)
VHH: B1 VHH with E33D, M97H
B12: 2LIG189_M97Q (VHH)
VHH: B1 VHH with E33D, M97Q
B13: 2LIG189_M97R (VHH)
VHH: B1 VHH with E33D, M97R
B14: 2LIG189_M97Y (VHH)
VHH: B1 VHH with E33D, M97Y
B15: 2LIG189_N32A (VHH)
VHH: B1 VHH with N32A, E33D
B16: 2LIG189_N32E (VHH)
VHH: B1 VHH with N32E, E33D
B17: 2LIG189_N32F (VHH)
VHH: B1 VHH with N32F, E33D
B18: 2LIG189_N32G (VHH)
VHH: B1 VHH with N32G, E33D

Legend:
[1] = molecular target: T1, recombinant PD-L1 extracellular domain fused to the mouse IgG1 Fc domain (SinoBiologicals) (human; mouse, UniProt Q9NZQ7 19-238); assay: BLI (Octet Red 96); ratio of the printed KDs, variant over 2LIG189
T1 construct: extracellular domain; also called human PD-L1-mouse Fc; PD-L1-mouse Fc protein; not shown: mouse IgG1 Fc domain
Description: (§1) Affinities of resulting variants were measured using the bio-layer interferometry technology on an Octet Red 96 instrument (ForteBio). In brief, recombinant PD-L1 extracellular domain fused to the mouse IgG1 Fc domain (SinoBiologicals) was immobilized on anti-murine IgG quantitation (AMQ) biosensors (ForteBio). Loaded sensors were incubated with a serial dilution of PD-L1 VHH variant, association and dissociation monitored and kinetic parameters were calculated using the Octet Data Analysis software v10 (ForteBio).
(§2) The aspartic acid at position 1 was included to avoid the risk of pyroglutamate formation. […] Resulting mutants were purified and affinities measured as described in Example 1.

[2] = molecular target: T1, recombinant PD-L1 extracellular domain …; assay: BLI (Octet Red 96), PD-L1-mouse IgG1 Fc on AMQ biosensors, VHH dilution series
Description: as §1, §2

T1 sequence (Q9NZQ7 19-238): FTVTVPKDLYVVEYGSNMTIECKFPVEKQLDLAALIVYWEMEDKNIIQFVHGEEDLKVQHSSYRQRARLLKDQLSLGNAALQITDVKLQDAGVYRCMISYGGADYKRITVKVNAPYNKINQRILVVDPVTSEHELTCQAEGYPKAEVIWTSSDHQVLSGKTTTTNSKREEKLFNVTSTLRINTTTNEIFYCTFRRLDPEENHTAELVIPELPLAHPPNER

Binder | Ratio KD [1] | Kd [2] [nM] | koff [2] [s⁻¹] | kon [2] [M⁻¹ s⁻¹] | binding result [2]
B1 | 52.1 | 41.2 | 0.00883 | 214000 | –
B2 | 12.4 | 9.78 | 0.0107 | 1.09e+06 | –
B3 | – | – | – | – | no binding
B4 | 20.7 | 16.4 | 0.0342 | 2.08e+06 | –
B5 | 31.6 | 25 | 0.0118 | 474000 | –
B6 | – | – | – | – | no binding
B7 | – | – | – | – | no binding
B8 | 2.82 | 2.23 | 0.00835 | 3.75e+06 | –
B9 | – | – | – | – | no binding
B10 | 1.9 | 1.51 | 0.000208 | 138000 | –
B11 | – | – | – | – | no binding
B12 | – | – | – | – | no binding
B13 | – | – | – | – | no binding
B14 | 6.09 | 4.82 | 0.00146 | 303000 | –
B15 | 3.41 | 2.7 | 0.000733 | 272000 | –
B16 | 0.68 | 0.542 | 9.85e-05 | 182000 | –
B17 | 0.7 | 0.55 | 0.000176 | 320000 | –
B18 | 24 | 19 | 0.00228 | 120000 | –
